{"source": "patent US20220243196", "key": {"[1]": {"system": "Hantavirus (serum containing virus; nuclear protein) (Hantavirus)", "test": "ELONA"}, "[2]": {"system": "Influenza A virus (serum containing virus) (Influenza A virus)", "test": "ELONA"}}}
{"sequence": "ATCCAGAGTGACGCAGCACACATCGGAGAACAGGCGCACTGTCGGAGGAACCGCAACGTGGACACGGTGGCTTAGT [biotin-aptamer 3]", "values": [{"measurement": "binding signal (a.u. absorbance)", "setting": "[1]", "result": 0.1}, {"measurement": "binding signal (a.u. absorbance)", "setting": "[2]", "result": 0.1}]}
